Experimental data published in patent publication US20220031840A1, “Method of Treatment” (HaemaLogix Pty Ltd, priority 2018, published 2022).

Key:
[1] = test system: 48 human cytokines, chemokines, and growth factors; assay: Biomarker analysis, Bio-Plex 27-plex and 21-plex, mixed-effects model; assay type: in vivo; details: 48 cytokines
Experimental: (§1) Patient serum samples for biomarker analysis were collected approximately 30 minutes before infusion of kappamab and then at 6, 48, 192, and 1,080 hours after infusion for all patients. Samples were analysed in triplicate and serum levels of 48 human cytokines, chemokines, and growth factors were measured using the Bio-Plex Pro™ Human Cytokine 27-plex and 21-plex assays according to the manufacturer's recommendations (Bio-Rad, Carlsbad, Calif., USA; Cat No M10-0KCAF0Y, mg0-005KMII). Results were verified by repeating the 21-plex assay in triplicate and the samples were randomized across the assay plate. Pre-infusion samples were used as the baseline (t=0) for the analysis.
(§2) Multivariate analysis of the biomarker data was performed using R version 3.1.0 (2014-04-10) software (http://www.R-project.org/). Linear mixed effects modelling was completed using 1me4 (Bates et al. 2015). […]
(§3) To find significance between kappamab dose, time, and cytokine expression levels, we fitted a linear mixed-effects model that modelled cytokine fluorescence expression levels with fixed-effects terms for baseline cytokine fluorescence expression, kappamab dose (with 4 levels: 0.3, 1.0, 3.0, and 10 mg/kg), time (treated as factor with 5 levels), and cytokine with 48 levels, plus their interactions, with a random effect associated with patient (12 levels) and plex (2 levels). […]

[2] = Phase 1 safety and tolerability of single IV infusion of kappamab (adverse events, laboratory, ECG)
Experimental: Patients on maintenance therapy (thalidomide or lenalidomide) were also eligible for inclusion. Patients were excluded from the study if their serum κFLC was greater than 250 mg/L.
The pharmacodynamics of serum κFLC was also assessed. Drug-target modulation of cell signalling pathways was determined by measuring pro-inflammatory and anti-inflammatory cytokines, chemokines, and growth factors in patient serum at specific time intervals.
After providing HREC-approved consent, patients were screened and assessed for study eligibility.
Within each dose cohort only 1 patient per week was to be treated. […] Premedication was not mandated, however, paracetamol (acetaminophen), corticosteroids, and antihistamines were allowed for the treatment of infusion reactions.
Evaluation of safety and tolerability during treatment included vital signs, physical examination, electrocardiogram (ECG), haematology assessments, clinical chemistry, C-reactive protein, β2-microglobulin, immunoglobulin quantification, urinalysis, creatinine clearance, collection of adverse events (AEs), and drug-induced toxicity. All AEs were graded using the Cancer Therapy Evaluation Program Common Terminology Criteria for Adverse Events, version 3.0.

CCL27 = assay: Biomarker analysis: serum CCL27; assay type: in vivo, human; details: adjusted for cytokine baseline differences
Experimental: as §1, §2, §3

[3] = All treatment-emergent AEs, Grade 1-3, 0.3 mg/kg (N = 3)
[4] = All treatment-emergent AEs, Grade 1-3, 1.0 mg/kg (N = 3)
[5] = All treatment-emergent AEs, Grade 1-3, 3.0 mg/kg (N = 3)
[6] = All treatment-emergent AEs, Grade 1-3, 10 mg/kg (N = 3)
[7] = All treatment-emergent AEs, Grade 1-3, Overall (N = 12)
[8] = All treatment-emergent AEs, Grade 4/5, 0.3 mg/kg (N = 3)
[9] = All treatment-emergent AEs, Grade 4/5, 1.0 mg/kg (N = 3)
[10] = All treatment-emergent AEs, Grade 4/5, 3.0 mg/kg (N = 3)
[11] = All treatment-emergent AEs, Grade 4/5, 10 mg/kg (N = 3)
[12] = All treatment-emergent AEs, Grade 4/5, Overall (N = 12)
[13] = All treatment-emergent AEs, Total, 0.3 mg/kg (N = 3)
[14] = All treatment-emergent AEs, Total, 1.0 mg/kg (N = 3)
[15] = All treatment-emergent AEs, Total, 3.0 mg/kg (N = 3)
[16] = All treatment-emergent AEs, Total, 10 mg/kg (N = 3)
[17] = All treatment-emergent AEs, Total, Overall (N = 12)
[18] = Possibly, probably, or definitely related AEs, Grade 1-3, 0.3 mg/kg (N = 3)
[19] = Possibly, probably, or definitely related AEs, Grade 1-3, 1.0 mg/kg (N = 3)
[20] = Possibly, probably, or definitely related AEs, Grade 1-3, 3.0 mg/kg (N = 3)
[21] = Possibly, probably, or definitely related AEs, Grade 1-3, 10 mg/kg (N = 3)
[22] = Possibly, probably, or definitely related AEs, Grade 1-3, Overall (N = 12)
[23] = Possibly, probably, or definitely related AEs, Grade 4/5, 0.3 mg/kg (N = 3)
[24] = Possibly, probably, or definitely related AEs, Grade 4/5, 1.0 mg/kg (N = 3)
[25] = Possibly, probably, or definitely related AEs, Grade 4/5, 3.0 mg/kg (N = 3)
[26] = Possibly, probably, or definitely related AEs, Grade 4/5, 10 mg/kg (N = 3)
[27] = Possibly, probably, or definitely related AEs, Grade 4/5, Overall (N = 12)
[28] = Possibly, probably, or definitely related AEs, Total, 0.3 mg/kg (N = 3)
[29] = Possibly, probably, or definitely related AEs, Total, 1.0 mg/kg (N = 3)
[30] = Possibly, probably, or definitely related AEs, Total, 3.0 mg/kg (N = 3)
[31] = Possibly, probably, or definitely related AEs, Total, 10 mg/kg (N = 3)
[32] = Possibly, probably, or definitely related AEs, Total, Overall (N = 12)
[33] = Related AEs by System Organ Class, Overall total, 0.3 mg/kg (N = 3)
[34] = Related AEs by System Organ Class, Overall total, 1.0 mg/kg (N = 3)
[35] = Related AEs by System Organ Class, Overall total, 3.0 mg/kg (N = 3)
[36] = Related AEs by System Organ Class, Overall total, 10 mg/kg (N = 3)
[37] = Related AEs by System Organ Class, Overall total, Overall (N = 12)
[38] = Related AEs: Dyspnea, 10 mg/kg (N = 3)
[39] = Related AEs: Dyspnea, Overall (N = 12)
[40] = Related AEs: Eructation, 10 mg/kg (N = 3)
[41] = Related AEs: Eructation, Overall (N = 12)
[42] = Related AEs: Flushing, 10 mg/kg (N = 3)
[43] = Related AEs: Flushing, Overall (N = 12)
[44] = Related AEs: Gastrointestinal disorders, Total, 10 mg/kg (N = 3)
[45] = Related AEs: Gastrointestinal disorders, Total, Overall (N = 12)
[46] = Related AEs: Musculoskeletal and connective tissue disorders, Total, 10 mg/kg (N = 3)
[47] = Related AEs: Musculoskeletal and connective tissue disorders, Total, Overall (N = 12)
[48] = Related AEs: Nausea, 10 mg/kg (N = 3)
[49] = Related AEs: Nausea, Overall (N = 12)
[50] = Related AEs: Pain in extremity, 10 mg/kg (N = 3)
[51] = Related AEs: Pain in extremity, Overall (N = 12)
[52] = Related AEs: Respiratory, thoracic & mediastinal disorders, Total, 10 mg/kg (N = 3)
[53] = Related AEs: Respiratory, thoracic & mediastinal disorders, Total, Overall (N = 12)
[54] = Related AEs: Vascular disorders, Total, 10 mg/kg (N = 3)
[55] = Related AEs: Vascular disorders, Total, Overall (N = 12)

kappamab: humanized form of K121 anti-KMA antibody; VH SEQ ID NO: 1, VL SEQ ID NO: 2
Increases in serum cytokine concentrations in response to treatment [1]: No increases | DLT or discontinuation due to an AE ([2]; 0.3-10 mg/kg): no patients who experienced a DLT or discontinued the study due to an AE | Patients with nausea (most frequently reported AE) ([2]; 2/12 patients): 17% | Patients who experienced study drug-related AEs ([2]; 2/12 patients, at the highest dose level (10 mg/kg)): 17% | AEs that were grade 1 or 2 ([2]; 17/18 events): 94% | Number of patients with AEs (%) [2, 3]: 2 (66%) | number of AEs [2, 3]: 4 | Number of patients with AEs (%) [2, 4]: 3 (100%) | number of AEs [2, 4]: 3 | Number of patients with AEs (%) [2, 5]: 1 (33%) | number of AEs [2, 5]: 2 | Number of patients with AEs (%) [2, 6]: 2 (67%) | number of AEs [2, 6]: 9 | Number of patients with AEs (%) [2, 7]: 8 (67%) | number of AEs [2, 7]: 18 | Number of patients with AEs (%) [2, 8]: 0 (0%) | number of AEs [2, 8]: 0 | Number of patients with AEs (%) [2, 9]: 0 (0%) | number of AEs [2, 9]: 0 | Number of patients with AEs (%) [2, 10]: 0 (0%) | number of AEs [2, 10]: 0 | Number of patients with AEs (%) [2, 11]: 0 (0%) | number of AEs [2, 11]: 0 | Number of patients with AEs (%) [2, 12]: 0 (0%) | number of AEs [2, 12]: 0 | Number of patients with AEs (%) [2, 13]: 2 (67%) | number of AEs [2, 13]: 4 | Number of patients with AEs (%) [2, 14]: 3 (100%) | number of AEs [2, 14]: 3 | Number of patients with AEs (%) [2, 15]: 1 (33%) | number of AEs [2, 15]: 2 | Number of patients with AEs (%) [2, 16]: 2 (67%) | number of AEs [2, 16]: 9 | Number of patients with AEs (%) [2, 17]: 8 (67%) | number of AEs [2, 17]: 18 | Patients who experienced treatment-emergent AEs ([2]; Eight of the 12 patients, all doses): 67% | Number of patients with AEs (%) [2, 18]: 0 (0%) | number of AEs [2, 18]: 0 | Number of patients with AEs (%) [2, 19]: 0 (0%) | number of AEs [2, 19]: 0 | Number of patients with AEs (%) [2, 20]: 0 (0%) | number of AEs [2, 20]: 0 | Number of patients with AEs (%) [2, 21]: 2 (67%) | number of AEs [2, 21]: 6 | Number of patients with AEs (%) [2, 22]: 2 (17%) | number of AEs [2, 22]: 6 | Number of patients with AEs (%) [2, 23]: 0 (0%) | number of AEs [2, 23]: 0 | Number of patients with AEs (%) [2, 24]: 0 (0%) | number of AEs [2, 24]: 0 | Number of patients with AEs (%) [2, 25]: 0 (0%) | number of AEs [2, 25]: 0 | Number of patients with AEs (%) [2, 26]: 0 (0%) | number of AEs [2, 26]: 0 | Number of patients with AEs (%) [2, 27]: 0 (0%) | number of AEs [2, 27]: 0 | Number of patients with AEs (%) [2, 28]: 0 (0%) | number of AEs [2, 28]: 0 | Number of patients with AEs (%) [2, 29]: 0 (0%) | number of AEs [2, 29]: 0 | Number of patients with AEs (%) [2, 30]: 0 (0%) | number of AEs [2, 30]: 0 | Number of patients with AEs (%) [2, 31]: 2 (67%) | number of AEs [2, 31]: 6 | Number of patients with AEs (%) [2, 32]: 2 (17%) | number of AEs [2, 32]: 6 | Number of patients with AEs (%) [2, 33]: 0[0] | number of AEs [2, 33]: 0[0] | Number of patients with AEs (%) [2, 34]: 0[0] | number of AEs [2, 34]: 0[0] | Number of patients with AEs (%) [2, 35]: 0[0] | number of AEs [2, 35]: 0[0] | Number of patients with AEs (%) [2, 36]: 2 (67%) | number of AEs [2, 36]: 6 | Number of patients with AEs (%) [2, 37]: 2 (17%) | number of AEs [2, 37]: 6 | Number of patients with AEs (%) [2, 38]: 1(33%) | number of AEs [2, 38]: 1 | Number of patients with AEs (%) [2, 39]: 1 (8.3%) | number of AEs [2, 39]: 1 | Number of patients with AEs (%) [2, 40]: 1 (33%) | number of AEs [2, 40]: 1 | Number of patients with AEs (%) [2, 41]: 1 (8.3%) | number of AEs [2, 41]: 1 | Number of patients with AEs (%) [2, 42]: 1 (33%) | number of AEs [2, 42]: 1 | Number of patients with AEs (%) [2, 43]: 1 (8.3%) | number of AEs [2, 43]: 1 | Number of patients with AEs (%) [2, 44]: 2 (67%) | number of AEs [2, 44]: 3 | Number of patients with AEs (%) [2, 45]: 2 (17%) | number of AEs [2, 45]: 3 | Number of patients with AEs (%) [2, 46]: 1 (33%) | number of AEs [2, 46]: 1 | Number of patients with AEs (%) [2, 47]: 1 (8.3%) | number of AEs [2, 47]: 1 | Number of patients with AEs (%) [2, 48]: 2 (67%) | number of AEs [2, 48]: 2 | Number of patients with AEs (%) [2, 49]: 2 (8.3%) | number of AEs [2, 49]: 2 | Number of patients with AEs (%) [2, 50]: 1 (33%) | number of AEs [2, 50]: 1 | Number of patients with AEs (%) [2, 51]: 1 (8.3%) | number of AEs [2, 51]: 1 | Number of patients with AEs (%) [2, 52]: 1 (33%) | number of AEs [2, 52]: 1 | Number of patients with AEs (%) [2, 53]: 1 (8.3%) | number of AEs [2, 53]: 1 | Number of patients with AEs (%) [2, 54]: 1 (33%) | number of AEs [2, 54]: 1 | Number of patients with AEs (%) [2, 55]: 1 (8.3%) | number of AEs [2, 55]: 1 | Time to resolution of infusion reaction symptoms ([2]; after infusion was stopped, without treatment): ≤ 30 min | Immune complex formation or serum sickness ([2]; any patient): no evidence of immune complex formation or serum sickness | Deaths or other serious AEs ([2]; during the study): no deaths or other serious AEs | Serum immunoglobulin levels, clinical chemistry, haematology, urinalysis ([2]; during the study): no dose-related trends | ECG QTc intervals ([2]; in vivo): no prolongation of QTc intervals | ECOG performance status scores ([2]; in vivo): no effect | Lactate dehydrogenase levels or vital signs ([2]; in vivo): No changes from baseline | Serum C-reactive protein levels ([2]; in vivo): no apparent dose-related trend | Infusion reaction ([2]; one patient, 10 mg/kg, flushing, dyspnea, nausea after start of infusion): grade 1 infusion reaction | Maximum tolerated dose ([2]; patients treated up to 10 mg/kg): No maximum tolerated dose of kappamab was defined | Kidney function ([2]; serum blood urea nitrogen, serum creatinine, creatinine clearance): no drug-related effects on kidney function | Change in serum concentration (CCL27): dose-related decreases
